Data set [1] deals with the molecule itself. Put plainly: SDS-PAGE, reducing vs nonreducing; purified fragments from E. coli SHuffle after 3C cleavage; electrophoretic mobilities in reducing and nonreducing gels; shows disulfide-linked dimers.
Data set [2] concerns the target T1, hGH fusion with PLVAP ECD, N-terminal deletion C (fusion protein C of Fig. 9) (Mus musculus, UniProt Q91VC4).
T1 construct: PLVAP, mouse; extends to the C terminus of PLVAP; Limit may be off by one residue; source: HEK/293T, transiently transfected, secreted, in serum-free conditioned medium; not shown: hGH (human growth hormone), N-terminal, kept
The experiment in a line: far-Western, overlay or dot blot; immunoblot: hGH-PLVAP deletion fusions in conditioned medium resolved by SDS-PAGE, blots probed with mAb MECA-32 and rabbit anti-hGH, fluorescent secondary antibodies. The following applies: one partner purified. (In general: A western blot detects proteins with antibodies after separation by electrophoresis.)

Data set [3] deals with T2, hGH fusion with PLVAP ECD from amino acid 104 to the C terminus (fusion protein A of Fig. 9) (Mus musculus, UniProt Q91VC4).
T2 construct: PLVAP, mouse; N terminus at amino acid 104 (TRREME...), extends to the C terminus of PLVAP; source: HEK/293T, transiently transfected, secreted, in serum-free conditioned medium; not shown: hGH (human growth hormone), N-terminal, kept
The description is as above. As to conditions: one partner purified.

Data set [4] deals with T3, hGH fusion with PLVAP ECD from amino acid 143, C-terminal deletion G (fusion protein G of Fig. 9) (Mus musculus, UniProt Q91VC4).
T3 construct: PLVAP, mouse; N terminus at amino acid 143 (QEQLKE...); Limit may be off by one residue; source: HEK/293T, transiently transfected, secreted, in serum-free conditioned medium; not shown: hGH (human growth hormone), N-terminal, kept
The description is as above. The following applies: one partner purified.

For data set [5], the target named is T4, AP–PLVAP CC2, alkaline phosphatase fused to PLVAP CC2 (Mus musculus, UniProt Q91VC4).
T4 construct: PLVAP, mouse, CC2; The plasmid codes for AP followed by a Myc tag and an 8xHis tag; source: HEK/293T, in conditioned media
Put plainly: ELISA; MECA-32/hIgG immobilised on protein A-coated 96-well plates (4 °C overnight); conditioned media with AP-PLVAP CC2, 25 °C, 1 h; 10 mM HEPES pH 7.5, 0.15 M NaCl, 0.05% Tween-20 washes; colorimetric AP reaction (BluePhos). As to conditions: one partner purified. Background: An ELISA detects its analyte on a solid surface through an enzyme-linked reagent.

Data set [6] concerns the molecule itself. The experiment in a line: crystal structure; PLVAP CC1; crystal form I (P212121, 0.2 M sodium malonate pH 5.0, 20% PEG3350, sulfur SAD) and crystal form II (I212121, 0.1 M sodium acetate pH 5.0, 15% PEG 4000), 21 °C.

B1: PLVAP extracellular domain (full-length ECD), residues 52 to 438 (domain or fragment, mouse, UniProt Q91VC4 52-438, looked up)
chain: HATTESSLRATEIRADSLYSQVVGLSASQANLSKQLNISLLVKETVMQQLLTTRREMERINASFRQCQGDLITYINYNRFIAAIILSEKQCQEQLKEVNKTCEALLFKLGEKVKTLEMEVAKEKAVCSKDKESLLAGKRQTEEQLEACGKARERQQQEQQVTEENLRKVQSLCIPLDQEKFQADVLSAWRDSLIYRTLETLPYHYQLMPEYASLRRTCESLPGIMTTKIEELARGLRAGIERVTRENAELRRQKLELERAAQAAQEARARAGTEAQARETQLRAECARQTQLALEEKAALRAQRDNLERELEARKRELEQLRTEVDVRISALDTCVKAKSLPAVPPRVSGPPPNPPPIDPASLEEFKKRILESQRLPVVNPAAQPSG
notes: plasmalemma vesicle-associated protein (PLVAP), mouse, extracellular domain, residues 52 to 438; also called PLVAP ECD; pXG61; source: E. coli SHuffle T7, purified (IMAC, 3C protease cleavage, IMAC, SEC); not shown: thioredoxin (E. coli TrxA), N-terminal, cleaved; 8xHis, N-terminal, cleaved
For B1, the binding result in data set [1] is “binds”.

B2: MECA-32, anti-PLVAP monoclonal antibody (antibody, V domains shown)
VH: EVQLVESGGGLVQPGRSMKLSCAASGFTFSDYYMAWVRQAPMKGLKWVASISYEGNKTYYGDSVKGRFTISRDNAKSILYLQMNSLKSEDTATYYCARQSYSSYIFDYWGQGVMVTVSS
VL: DIQMTQTPSSMSASLGERVTISCGTSQGVNIFLNWYQQKPDGTIKPLIFFTSHLQSGVPSRFSGSGSGTAYSLTISSLEPEDFAVYYCQQYDSSPPTFGGGTKLYLK
notes: heavy-chain constant region of the hybridoma antibody; light-chain constant region of the hybridoma antibody; the blots used the bought antibody of the same clone name; also called rat mAb MECA-32 (553849; BD Biosciences); source: bought: BD Biosciences (553849)
For B2, the binding result in data set [2], in data set [3] and in data set [4] was “binds” in each case.

B3: MECA-32/hIgG, engineered MECA-32 antibody with human constant regions (antibody, V domains shown)
VH: EVQLVESGGGLVQPGRSMKLSCAASGFTFSDYYMAWVRQAPMKGLKWVASISYEGNKTYYGDSVKGRFTISRDNAKSILYLQMNSLKSEDTATYYCARQSYSSYIFDYWGQGVMVTVSS
VL: DIQMTQTPSSMSASLGERVTISCGTSQGVNIFLNWYQQKPDGTIKPLIFFTSHLQSGVPSRFSGSGSGTAYSLTISSLEPEDFAVYYCQQYDSSPPTFGGGTKLYLK
notes: mature VH of MECA-32; human heavy-chain IgG constant region (CH1, CH2 and CH3) with an HRV 3C protease cleavage site between CH1 and CH2; mature VL of MECA-32; human light-chain constant region (CL); Chimeric IgG; held on protein A-coated wells in the assay; also called MECA-32/IgG; engineered MECA-32 Ab; source: HEK/293T, cotransfected heavy- and light-chain plasmids, purified from conditioned …
Regarding B3, the binding result in data set [5] is given as “binds”.

B4: PLVAP CC2, residues 270 to 395 (domain or fragment, mouse, UniProt Q91VC4 270-395, looked up)
chain: ESLPGIMTTKIEELARGLRAGIERVTRENAELRRQKLELERAAQAAQEARARAGTEAQARETQLRAECARQTQLALEEKAALRAQRDNLERELEARKRELEQLRTEVDVRISALDTCVKAKSLPAV
notes: PLVAP, mouse, coiled-coil segment CC2, residues 270 to 395; also called pXG52; source: E. coli SHuffle T7, purified (IMAC, 3C protease cleavage, IMAC, SEC); not shown: thioredoxin (E. coli TrxA), N-terminal, cleaved; 8xHis, N-terminal, cleaved
As for B4, the binding result in data set [1] is listed as “binds”.

B5: PLVAP CC1, residues 141 to 229 (domain or fragment, mouse, UniProt Q91VC4 141-229, looked up)
chain: QCQEQLKEVNKTCEALLFKLGEKVKTLEMEVAKEKAVCSKDKESLLAGKRQTEEQLEACGKARERQQQEQQVTEENLRKVQSLCIPLDQ
notes: PLVAP, mouse, coiled-coil segment CC1, residues 141 to 229 (89 amino acids); Parallel dimer with five interchain disulfide bonds; also called pPMS1170; source: E. coli SHuffle T7, purified (IMAC, 3C protease cleavage, IMAC, SEC); not shown: thioredoxin (E. coli TrxA), N-terminal, cleaved; 8xHis, N-terminal, cleaved
Take B5: the stoichiometry N (as a rule, the number of molecules, sites or subunits per partner or assembly) in data set [6] worked out at 2.

(Values after paper PMC10083539, “Structural insights into plasmalemma vesicle-associated protein (PLVAP): Implications for vascular endothelial diaphragms and fenestrae” (Proceedings of the National Academy of Sciences of the …, 2023).)
